Substitutions are numbered along the chain they refer to. Numbers in names are those of the source.
Tests used:
[1] = target: T1, human CD20 (Homo sapiens CD20) (Homo sapiens, UniProt P11836 1-297); test: FACS on Raji cells, crude transfection supernatant
T1 construct: Multi-pass cell surface antigen; present on Raji, Ramos, WSU-DLCL2 cells, human CD19+ B cells, or on stably transfected CHO cells (CD20/CHO); also called hCD20
T1 sequence: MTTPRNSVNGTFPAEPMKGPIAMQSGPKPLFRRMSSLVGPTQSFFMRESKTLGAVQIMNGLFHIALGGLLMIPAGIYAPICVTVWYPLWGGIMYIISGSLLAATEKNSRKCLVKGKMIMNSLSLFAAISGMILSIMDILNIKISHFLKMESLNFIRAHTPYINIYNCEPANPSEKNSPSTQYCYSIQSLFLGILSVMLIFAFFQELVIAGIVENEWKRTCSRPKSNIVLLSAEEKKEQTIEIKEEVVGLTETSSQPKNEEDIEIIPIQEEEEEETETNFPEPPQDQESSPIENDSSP

[2] = target: T1, human CD20 (Homo sapiens CD20); test: FACS on WSU-DLCL2, Raji and Ramos cells, 10 µg/mL
[3] = target: T2, human CD37 (Homo sapiens CD37) (Homo sapiens, UniProt P11049 1-281); test: FACS, APC-labelled antibody on CD19+ B cells of human PBMCs
T2 construct: Multi-pass cell surface antigen; present on Raji, Ramos, WSU-DLCL2 cells, human B cells, or on stably transfected CHO cells (CD37/CHO); also called hCD37
T2 sequence: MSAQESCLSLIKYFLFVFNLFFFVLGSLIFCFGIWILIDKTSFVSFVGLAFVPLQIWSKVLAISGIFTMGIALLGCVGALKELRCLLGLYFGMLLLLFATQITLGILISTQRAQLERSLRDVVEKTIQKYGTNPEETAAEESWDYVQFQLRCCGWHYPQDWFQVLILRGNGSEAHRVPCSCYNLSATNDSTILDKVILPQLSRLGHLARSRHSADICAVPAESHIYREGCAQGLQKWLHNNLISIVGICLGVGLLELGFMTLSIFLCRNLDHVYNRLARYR

[4] = target: T3, cynomolgus monkey CD37 (Macaca fasicularis CD37) (cynomolgus monkey (Macaca fasicularis …, UniProt P11049 1-281 (human entry))); test: FACS, APC-labelled antibody on CD19+ B cells of cynomolgus monkey PBMCs
T3 construct: On CD20+ or CD19+ B cells in cynomolgus monkey PBMCs; also called cynoCD37
T3 chain: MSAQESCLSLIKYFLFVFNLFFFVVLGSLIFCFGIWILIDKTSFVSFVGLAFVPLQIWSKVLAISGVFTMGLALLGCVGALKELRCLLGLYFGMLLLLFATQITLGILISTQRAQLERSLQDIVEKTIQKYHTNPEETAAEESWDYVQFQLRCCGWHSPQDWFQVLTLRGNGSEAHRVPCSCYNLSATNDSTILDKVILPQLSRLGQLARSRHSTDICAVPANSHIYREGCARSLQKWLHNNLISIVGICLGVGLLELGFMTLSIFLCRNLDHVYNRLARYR

[5] = target: T3, cynomolgus monkey CD37 (Macaca …); test: FACS, ratio of EC50 on cynomolgus monkey B cells to EC50 on human B cells
[6] = target: T1, human CD20 (Homo sapiens CD20); test: FACS on CHO cells stably expressing hCD20 (CD20/CHO)
[7] = target: T2, human CD37 (Homo sapiens CD37); test: FACS on CHO cells stably expressing hCD37 (CD37/CHO), EC50 of Geo MFI
[8] = target: T1, human CD20 (Homo sapiens CD20); test: FACS on Raji cells, titration
[9] = target: T2, human CD37 (Homo sapiens CD37); test: FACS on CHO cells stably expressing hCD37 (CD37/CHO)
[10] = target: T1, human CD20 (Homo sapiens CD20); test: FACS on CHO cells stably expressing hCD20 (CD20/CHO), EC50 of Geo MFI
[11] = target: T2, human CD37 (Homo sapiens CD37); test: FACS on WSU-DLCL2, Raji and Ramos cells, 10 µg/mL
[12] = target: T3, cynomolgus monkey CD37 (Macaca …); test: FACS on CD20+ gated cynomolgus monkey PBMCs
[13] = target: T3, cynomolgus monkey CD37 (Macaca …); test: FACS on CD20+ gated cynomolgus monkey PBMCs, compared with anti-hCD37 Ab1

B1: anti-hCD20 Ab1-T6 (antibody, human IgG1, kappa, name in Kabat numbering, V domains shown)
VH: QVQLVQSGAEVKKPGSSVKVSCKASGYTFTSYNMHWVRQAPGQGLEWMGRIYPGNGDTSYNQKFQGRVTLTVDKSSSTAYMELSSLRSEDTAVYFCARVVYYSNSYWYFDVWGTGTMVTVSS
VL: EIVLTQSPDFQSVTPKEKVTITCRASSSVSYMHWYQQKPDQSPKPLIYAPSNLASGVPSRFSGSGSGTDYTLTINSLEAEDAATYYCQQWSFNPPTFGAGTKLEIKR
notes: IgG1; also called variant #3
Does B1 bind [1]?
Result: binds

B2: anti-hCD20 Ab1-T7 (antibody, human IgG1, kappa, name in Kabat numbering, V domains shown)
VH: B1 VH with R50A, N55E
VL: B1 VL
notes: IgG1; also called variant #7
Does B2 bind [2]?
Result: binds

B3: anti-hCD20 Ab1-T8 (antibody, human IgG1, kappa, name in Kabat numbering, V domains shown)
VH: B1 VH with R50A, S59D
VL: B1 VL
notes: IgG1; also called variant #8
Does B3 bind [1]?
Result: binds

B4: anti-hCD37 Ab1.A1 (antibody, human IgG1, kappa)
heavy: not shown
light: DIQMTQSPSSLSASVGDRVTITCRTSENVYNYLAWYQQKPGKAPKLLIYFAKTLAEGVPSRFSGSGSGTQFTLTISSLQPEDSASYYCQHHSDNPWTFGGGTELEIKRTVAAPSVFIFPPSDEQLKSGTASVVCLLNNFYPREAKVQWKVDNALQSGNSQESVTEQDSKDSTYSLSSTLTLSKADYEKHKVYACEVTHQGLSSPVTKSFNRGEC
notes: anti-hCD37 Ab1 with VH-M34V + VL-S31N; also called anti-CD37 Ab1.A1
For B4, which EC50 [3] is on record?
The EC50 was 4.05 nM.

And the EC50 [4]?
The EC50 was 254 nM.

What about the “fold less potent than its binding of human B cells” value [5] of the same binder?
The value was 62.7 fold.

B5: anti-hCD37 Ab1.A1.1 (antibody)
heavy: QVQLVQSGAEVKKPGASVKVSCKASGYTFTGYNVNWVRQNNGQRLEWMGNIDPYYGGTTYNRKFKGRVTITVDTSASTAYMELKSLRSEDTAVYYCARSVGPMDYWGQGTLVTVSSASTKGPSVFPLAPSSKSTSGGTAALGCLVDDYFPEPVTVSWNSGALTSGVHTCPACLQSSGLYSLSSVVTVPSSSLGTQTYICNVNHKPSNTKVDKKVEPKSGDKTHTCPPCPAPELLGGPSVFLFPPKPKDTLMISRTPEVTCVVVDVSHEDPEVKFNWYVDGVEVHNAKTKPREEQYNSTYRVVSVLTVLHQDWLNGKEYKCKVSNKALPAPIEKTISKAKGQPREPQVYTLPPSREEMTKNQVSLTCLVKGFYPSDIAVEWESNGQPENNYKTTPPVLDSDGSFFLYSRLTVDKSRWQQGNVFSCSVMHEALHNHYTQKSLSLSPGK
light: B4 light with S131K, Q160C, S162C, C214S
notes: Ab1.A1 with HC K147D, F170C, V173C, C220G, K409R and LC S131K, Q160C, S162C, C214S; also called α-CD37 Ab1.A1.1
Does B5 bind [6]?
Result: no binding (tested: about 0.0002 nM to about 30 nM)

And the EC50 [7]?
Its EC50 is 1.33 nM.

B6: anti-hCD20 Ab1.2.2 (antibody, human IgG4 S228P, kappa)
heavy: QVQLVQSGAEVKKPGSSVKVSCKASGYTFTSYNMHWVRQAPGQGLEWMGAIYPGNGDTSYNQKFQGRVTLTVDKSSSTAYMELSSLRSEDTAVYFCARVVYYSNSYWYFDVWGTGTMVTVSSASTKGPSVFPLAPCSRSTSESTAALGCLVKDYFPEPVTVSWNSGALTSGVHTFPAVLQSSGLYSLSSVVTVPSSSLGTKTYTCNVDHKPSNTKVDKRVESKYGPPCPPCPAPELLGGPDVFLFPPKPKDTLMISRTPEVTCVVVDVSHEDPEVKFNWYVDGVEVHNAKTKPREEQYNATYRVVSVLTVLHQDWLNGKEYKCKVSNKALPAPIEKTISKAKGQPREPQVYTLPPSREMTKNQVSLTCLVKGFYPSDIAVEWESNGQPENNYKTTPPVLDSDGSFFLYSKLTVDKSRWQQGNVFSCSVMHEALHNHYTQKSLSLSPGK
light: EIVLTQSPDFQSVTPKEKVTITCRASSSVSYMHWYQQKPDQSPKPLIYAPSNLASGVPSRFSGSGSGTDYTLTINSLEAEDAATYYCQQWSFNPPTFGAGTKLEIKRTVAAPSVFIFPPSDEQLKSGTASVVCLLNNFYPREAKVQWKVDNALQSGNSQESVTEQDSKDSTYSLSSTLTLSKADYEKHKVYACEVTHQGLSSPVTKSFNRGEC
notes: Ab1.2 with S239D, S298A
With B6 as the binder, how does the EC50 [8] read?
The EC50 was 26.3 nM.

B7: anti-hCD20 Ab1.2.2.1 (antibody, human IgG4 S228P, kappa)
heavy: QVQLVQSGAEVKKPGSSVKVSCKASGYTFTSYNMHWVRQAPGQGLEWMGAIYPGNGDTSYNQKFQGRVTLTVDKSSSTAYMELSSLRSEDTAVYFCARVVYYSNSYWYFDVWGTGTMVTVSSASTKGPSVFPLAPCSRSTSESTAALGCLVKDYFPEPVTVSWNSGALTSGVHTFPAVLQSSGLYSLSSVVTVPSSSLGTKTYTCNVDHKPSNTKVDKRVESKYGPPCPPCPAPELLGGPDVFLFPPKPKDTLMISRTPEVTCVVVDVSHEDPEVKFNWYVDGVEVHNAKTKPREEQYNATYRVVSVLTVLHQDWLNGKEYKCKVSNKALPAPIEKTISKAKGQPREPQVYTLPPSREEMTKNQVSLTCLVKGFYPSDIAVEWESNGQPENNYKTTPPVLRSDGSFFLYSELTVDKSRWQQGNVFSCSVMHEALHNHYTQKSLSLSPGK
light: B6 light
notes: Ab1.2.2 with D399R and K409E in the CH3; also called α-CD20 Ab1.2.2.1
Which results are given for B7?
binding result [9]: no binding (tested: about 0.0002 nM to about 30 nM); EC50 [10]: 5.02 nM

B8: anti-hCD37 Ab1 (antibody, human IgG1, kappa, V domains shown)
VH: QVQLVQSGAEVKKPGASVKVSCKASGYTFTGYNMNWVRQNNGQRLEWMGNIDPYYGGTTYNRKFKGRVTITVDTSASTAYMELKSLRSEDTAVYYCARSVGPMDYWGQGTLVTVSS
VL: DIQMTQSPSSLSASVGDRVTITCRTSENVYSYLAWYQQKPGKAPKLLIYFAKTLAEGVPSRFSGSGSGTQFTLTISSLQPEDSASYYCQHHSDNPWTFGGGTELEIKR
notes: Humanized IgG1/kappa derived from G28.1; also called aCD37 Ab1
Does B8 bind [11]?
Result: binds

B9: anti-hCD37 Ab1.N12 (antibody, human IgG1, kappa, V domains shown)
VH: B8 VH with M34L, K65Q
VL: B8 VL with T53S, D93E
notes: anti-hCD37 Ab1 with VH M34L + K64Q and VL T53S + D93E; also called anti-CD37 Ab1.N12
Does B9 bind [12]?
Result: binds

B10: anti-hCD37 Ab1.N18 (antibody, human IgG1, kappa, name in Kabat numbering, V domains shown)
VH: B8 VH with M34L, K65Q
VL: B8 VL with S31N, L54I, D93E
notes: IgG1 variant of anti-hCD37 Ab1
Does B10 bind [13]?
Result: binds

B11: anti-hCD37 Ab1.N19 (antibody, human IgG1, kappa, name in Kabat numbering, V domains shown)
VH: B8 VH with M34L, K65Q, M103L
VL: B8 VL with S31N, T53S, S92G
notes: as for B10
Does B11 bind [12]?
Result: binds

B12: rituximab (antibody, V domains shown)
VH: QVQLQQPGAELVKPGASVKMSCKASGYTFTSYNMHWVKQTPGRGLEWIGAIYPGNGDTSYNQKFKGKATLTADKSSSTAYMQLSSLTSEDSAVYYCARSTYYGGDWYFNVWGAGTTVTVSA
VL: QIVLSQSPAILSASPGEKVTMTCRASSSVSYIHWFQQKPGSSPKPWIYATSNLASGVPVRFSGSGSGTSYSLTISRVEAEDAATYYCQQWTSNPPTFGGGTKLEIK
B12 was tested. Which EC50 [8] did it give?
The EC50 was 18.2 nM.

Reference: US20240059785A1 (QILU PUGET SOUND BIOTHERAPEUTICS, published 2024)
